Experimental data reported in patent publication US8153134 (SCHERING, dated 2012).
Read-outs that look alike come from different tables or passages of the source.

T1: human MDL-1 (human, UniProt Q9NY25 1-188)
T1 sequence: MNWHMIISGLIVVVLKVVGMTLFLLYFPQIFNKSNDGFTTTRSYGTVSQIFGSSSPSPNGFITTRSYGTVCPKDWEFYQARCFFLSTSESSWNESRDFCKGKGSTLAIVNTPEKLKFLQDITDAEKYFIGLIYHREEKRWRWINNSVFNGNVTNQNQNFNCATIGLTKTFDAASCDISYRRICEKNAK

T2: hMDL-1-hIG (human, UniProt Q9NY25 28-188)
T2 construct: Fusion of human MDL-1 with human Ig used in the BIAcore assay; MDL-1 is a type II membrane protein, so the Ig part may stand N-terminal; also called MDL-1-hIg ligand; not shown: human Ig part (hIG)
T2 sequence: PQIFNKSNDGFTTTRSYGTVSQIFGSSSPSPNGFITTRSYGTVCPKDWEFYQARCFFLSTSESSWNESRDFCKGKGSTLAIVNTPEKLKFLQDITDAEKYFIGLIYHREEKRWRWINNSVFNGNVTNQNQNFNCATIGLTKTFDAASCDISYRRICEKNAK


Assays:
human MDL-1 [1] = molecular target: T1, human MDL-1; test: cell-based or functional assay
hMDL-1-hIG [2] = molecular target: T2, hMDL-1-hIG; test: BIAcore SPR; hMDL-1-hIG as capture antigen on the chip, mAb as analyte; apparent Kd
Procedure: (§1) Determining the Equilibrium Dissociation Constant (K_d) for Humanized Anti-Human MDL-1 Antibodies Using BIAcore Technology BIAcore determinations are performed essentially as described at Example 4 of co-pending, commonly assigned U.S. patent application Ser. No. 11/511,635 (filed 29 Aug. 2006). Briefly, ligands (anti-MDL-1-hIg) are immobilized on a BIAcore CM5 sensor chip using standard amine-coupling procedure. Kinetic constants for the various interactions are determined using BIAevaluation software 3.1. The K_d is determined using the calculated dissociation and association rate constants.

hMDL-1-hIG [3] = molecular target: T2, hMDL-1-hIG; test: BIAcore SPR; hMDL-1-hIG as capture antigen on the chip, mAb as analyte
Procedure: as §1

hMDL-1-hIG [4] = molecular target: T2, hMDL-1-hIG; test: BIAcore SPR; mAb as capture reagent, hMDL-1-hIG as analyte
Procedure: as §1
(§2) For antibodies DX233, DX239, and DX240, the antibodies were used as the capture reagent and the MDL-1-hIg ligand was used as the analyte. Affinity measurements for DX233, DX239, and DX240 were as follows.

human MDL-1 [5] = molecular target: T1, human MDL-1; test: cell-based or functional assay; remark: listed apart in the source
hMDL-1-hIG [6] = molecular target: T2, hMDL-1-hIG; test: BIAcore SPR; mAb as capture reagent, hMDL-1-hIG as analyte; apparent Kd
Procedure: as §1, §2

human MDL-1 [7] = molecular target: T1, human MDL-1; test: cell-based or functional assay; remark: listed apart in the source
human MDL-1 [8] = molecular target: T1, human MDL-1; test: cell-based or functional assay; remark: listed apart in the source

secreted beta-hexosaminidase, OD (405-570), DT808 mouse mast cells, cross-link (human MDL-1 [1]) | secreted beta-hexosaminidase, OD (405-570), DT808 mouse mast cells, no cross-link (human MDL-1 [1]) | Kd (hMDL-1-hIG [2]) | koff (hMDL-1-hIG [3]) | kon (hMDL-1-hIG [3]) | koff (hMDL-1-hIG [4]) | kon (hMDL-1-hIG [4]) | decrease of CD62L staining (MFI) of human neutrophils, isotype control treatment minus anti-hMDL-1 treatment (human MDL-1 [5]) | Kd (hMDL-1-hIG [6]) | secreted beta-hexosaminidase, OD (405-570), DT808 mouse mast cells, cross-link (human MDL-1 [7]) | secreted beta-hexosaminidase, OD (405-570), DT808 mouse mast cells, no cross-link (human MDL-1 [7]) | increase in CD11b surface expression on human neutrophils, Mean Fluorescent Intensity as compared to isotype control treatment (human MDL-1 [8]) | increase in CD66b surface expression on human neutrophils, Mean Fluorescent Intensity as compared to isotype control treatment (human MDL-1 [8]) | Binder
3.25 OD (405-570) | 2.66 OD (405-570) | 0.207 nM | 7.3e-05 s⁻¹ | 354000 M⁻¹ s⁻¹ | – | – | – | – | – | – | – | – | DX241 (antibody, V domains shown, Rodent anti-human MDL-1 monoclonal antibody from a hybridoma; VL of the kappa subclass; also called anti-MDL-1 antibody clone DX241; ATCC PTA-8374) VH: DVKLVESGGGLVKLGGSLKLSCAASGFTFSSYYMSWVRQTPDKRLELVAAINSNGGTTYYPDTVKGRFTISRDNAKNTLYLQMSSLKPEDTALFYCVRDGEFGHYFDYWGQGTTLTVSS VL: SIVMTQTPKFLLVSAGDRVTITCKASQSVNNDVAWYQQKPGQSPKLLIYYASNRYTGVPDRFTGSGYGTDFTFTISTVQAEDLAVYFCQQDYNSPLTFGAGTKLELKR
– | – | – | – | – | 0.000336 s⁻¹ | 10000 M⁻¹ s⁻¹ | 142 MFI | 37.9 nM | 3.14 OD (405-570) | 1 OD (405-570) | 377 MFI | 107 MFI | DX239 (antibody, V domains shown, Parental rodent anti-human MDL-1 monoclonal antibody (not the humanized form); VL of the kappa subclass; also called anti-MDL-1 antibody clone DX239; ATCC PTA-9135) VH: QVQLQQSGAELVRPGTSVKISCKASGYGFNNYWLGWVKQRPGHGLEWIGDIYPGSGNTYYNENFKGRATLTADKSSTTAYMQVSSLTSEDSAVYFCARGKESFAYWGQGTLVTVSA VL: not shown
3.17 OD (405-570) | 3.32 OD (405-570) | 25.2 nM | 0.0016 s⁻¹ | 63000 M⁻¹ s⁻¹ | – | – | – | – | – | – | – | – | DX230 (antibody, V domains shown, Rodent anti-human MDL-1 monoclonal antibody from a hybridoma; VL of the kappa subclass; also called anti-MDL-1 antibody clone DX230; ATCC PTA-8373) VH: EVQLVESGGDLVKPGGSLKLSCAASGFAFSNYDMSWVRQTPEKRLEWVAYISGGGGTTYYSDTVKGRFTISRDNAKNTLYLQMSSLKSEDTAMYYCVRHAVYYGKPYWGQGTTLTVSS VL: DIVLTQSPPSLAVSLGQRATVSCRASESVEHYGTGLMQWYQQKPGQPPRLLIYAASNVESGVPARFSGSGSGTDFSLNIHPVEEDDIAMYFCQQSRKVPWTFGGGTKLEIKR
3.28 OD (405-570) | 3.17 OD (405-570) | – | – | – | – | – | – | – | – | – | – | – | DX297 (antibody, V domains shown) VH: EVQLVESGGDLVKPGGSLKLSCTASGFAFSNYDMSWVRQTPEKRLEWVAYISGGGGTTYYSDTVKGRFTISRDNARNTLYLQMSSLKSEDTAIYYCARHPIYYGKPYWGQGTTLTVSS VL: DIVLTQSPASLAVSLGQRATISCRASESVEHYGTSLMQWYQQKPGQPPRLLIYAASNVESGVPARFSGGGSGTDFSLNIHPVEEDDIAMYFCQQNRKVPWTFGGGTKLEIKR
– | – | – | – | – | 0.000147 s⁻¹ | 20000 M⁻¹ s⁻¹ | 96.9 MFI | 8.65 nM | 3.21 OD (405-570) | 1.22 OD (405-570) | 303 MFI | 90.5 MFI | DX233 (antibody, V domains shown, Rodent anti-human MDL-1 monoclonal antibody from a hybridoma; VL of the kappa subclass; also called anti-MDL-1 antibody clone DX233) VH: EVQMQQSGAELVKPGASVKLSCTASGFNIKDTYMHWVKQRPEQGLEWIGRIDPANGITKSDPKFQGKATITADTSSNTAYLQLNSLTSEDTAVYSCAPYSGNYVWFPYWGQGTLVTVSA VL: DIVMTQSHKFMSTSVGDRVNITCKASQDVGTAVAWYQRKPGKSPQVLIYWASTRHTGVPDRFTGSGSGTDFTLTISNVQSEDLADYFCQQYRSYPLTFGAGTKLELKR
– | – | – | – | – | 0.000325 s⁻¹ | 8000 M⁻¹ s⁻¹ | 114 MFI | 43 nM | 3.25 OD (405-570) | 1.83 OD (405-570) | 336 MFI | 97 MFI | DX240 (antibody, V domains shown, Rodent anti-human MDL-1 monoclonal antibody from a hybridoma; VL of the kappa subclass; also called anti-MDL-1 antibody clone DX240; ATCC PTA-9136) VH: QVQLLQSGAELVKPGASVKISCKASGYTFTDHAIHWVKQKPEQGLEWIGYISPGDGDIKYNEKFKDKATLTADKSSSIAYMQLNSLTSEDSAVYFCKNFDYDFIFDFWGQGTTLTVSS VL: DIVMSQSPSSLAVSAGETVTMSCKSSQSLLNSRARKNYLAWYQQKPGQSPKLLIYWASTRESGVPDRFTGSGSGTDFTLTISSVRAEDLAVYYCKQSYNLYTFGGGTKLEIKR
3.23 OD (405-570) | 3.39 OD (405-570) | 1.27 nM | 0.000817 s⁻¹ | 644000 M⁻¹ s⁻¹ | – | – | 152 MFI | – | – | – | 393 MFI | 109 MFI | DX246 (antibody, V domains shown, Rodent anti-human MDL-1 monoclonal antibody from a hybridoma; VL of the kappa subclass; also called anti-MDL-1 antibody clone DX246; ATCC PTA-8376) VH: QVTLKESGPGILKPSQTLSLTCSFSGFSLSTSGMNVGWIRQPSGKGLEWLAHIWWDDDKYYNPSLKSQLTISKDTSRNQVFLKITSVDTADTATYYCARRAFYGSNYDYYAMDYWGQGTSVTVSS VL: ENVLTQSPAIMSASPGEKVTMTCSVSSSVSYIHWYQQKSSTSPKLWIYDTSKLASGVPGRFSGSGSGNSYSLTISSMEAEDVATYYCFQGSGYPLTFGAGTKLELKR
3.36 OD (405-570) | 3.46 OD (405-570) | 0.247 nM | 6.8e-05 s⁻¹ | 277000 M⁻¹ s⁻¹ | – | – | 140 MFI | – | – | – | 349 MFI | 110 MFI | DX244 (antibody, V domains shown, Parental rodent anti-human MDL-1 monoclonal antibody (not the humanized form); VL of the kappa subclass; also called anti-MDL-1 antibody clone DX244; ATCC PTA-8375) VH: QIQLVQSGPELKKPGETVKISCKASGYTFTIYAMNWVKQAPGKGLEWMGWINTDTGEPTYADDFKGRFAFSLETSASTAYLQINNLKNEDMATYFCARSSEVFYDYRFDYWGQGTALTVSS VL: DIQMTQSPSSLSASLGERVSLTCRASQDIGSSLNWLQQEPDGTIKRLIYATSNLDSGVPKRFSGSRSGSDYSLTISSLESEDFVHYYCLQYASSPFTFGSGTKLEIKR
